B1: Twister Ribozyme (parent)
chain: AACACUGCCAAUGCCGGUCCCAAGCCCGGAUAAAAGUGGAGGGGGCGG

Variants of: B1
Assay: self-cleavage, relative activity (ratio to wild type); higher = more cleavage; co-transcriptional

| Variant | self-cleavage |
| --- | --- |
| AACACUGCCAAAGCCGGUCCCAAGCCCGGAUAAAAUUGGAGGGGGCGG [U12A G36U] | 0.794 |
| AACACUGCCAAAGCCGGUCCCAAGCCCGGAUAAAAGUAGAGGGGGCGG [U12A G38A] | 1.08 |
| AACACUGCCAAAGCCGGUCCCAAGCCCGGAUAAAAGUCGAGGGGGCGG [U12A G38C] | 1.11 |
| AACACUGCCAAAGCCGGUCCCAAGCCCGGAUAAAAGUGAAGGGGGCGG [U12A G39A] | 0.677 |
| AACACUGCCAAAGCCGGUCCCAAGCCCGGAUAAAAGUGCAGGGGGCGG [U12A G39C] | 0.127 |
| AACACUGCCAAAGCCGGUCCCAAGCCCGGAUAAAAGUGUAGGGGGCGG [U12A G39U] | 0.242 |
| AACACUGCCAAAGCCGGUCCCAAGCCCGGAUAAAAGUGGAAGGGGCGG [U12A G41A] | 0.696 |
| AACACUGCCAAAGCCGGUCCCAAGCCCGGAUAAAAGUGGACGGGGCGG [U12A G41C] | 0.264 |
| AACACUGCCAAAGCCGGUCCCAAGCCCGGAUAAAAGUGGAGGAGGCGG [U12A G43A] | 0.298 |
| AACACUGCCAAAGCCGGUCCCAAGCCCGGAUAAAAGUGGAGGUGGCGG [U12A G43U] | 0.477 |
| AACACUGCCAAAGCCGGUCCCAAGCCCGGAUAAAAGUGGAGGGAGCGG [U12A G44A] | 1.04 |
| AACACUGCCAAAGCCGGUCCCAAGCCCGGAUAAAAGUGGAGGGCGCGG [U12A G44C] | 1.19 |
| AACACUGCCAAAGCCGGUCCCAAGCCCGGAUAAAAGUGGAGGGUGCGG [U12A G44U] | 1.05 |
| AACACUGCCAAAGCCGGUCCCAAGCCCGGAUAAAAGUGGAGGGGUCGG [U12A G45U] | 1.02 |
| AACACUGCCAAAGCCGGUCCCAAGCCCGGAUAAAAGUGGAGGGGGCAG [U12A G47A] | 1.13 |
| AACACUGCCAAAGCCGGUCCCAAGCCCGGAUAAAAGUGGAGGGGGCUG [U12A G47U] | 1.05 |
| AACACUGCCAAAGCCGGUCCCAAGCCCGGAUAAAAGUGGAGGGGGCGA [U12A G48A] | 0.991 |
| AACACUGCCAAAGCCGGUCCCAAGCCCGGAUAAAAGUGGAGGGGGCGC [U12A G48C] | 1.22 |
| AACACUGCCAAAGCCGGUCCCAAGCCCGGAUAAAAGUGGAGGGGGCGU [U12A G48U] | 1.18 |
| AACACUGCCAAAGCCGGGCCCAAGCCCGGAUAAAAGUGGAGGGGGCGG [U12A U18G] | 0.106 |
| AACACUGCCAAAGCCGGUCCCAAGCCCGGAUAAAAGGGGAGGGGGCGG [U12A U37G] | 0.925 |
| AACACUGCCAACGCCGGUCCCAAGCCCGGAUAAAAGUGGAGGGGGCGG [U12C] | 0.961 |
| AACACUGCCAACGCCGGUCCCCAGCCCGGAUAAAAGUGGAGGGGGCGG [U12C A22C] | 0.861 |
| AACACUGCCAACGCCGGUCCCUAGCCCGGAUAAAAGUGGAGGGGGCGG [U12C A22U] | 0.805 |
| AACACUGCCAACGCCGGUCCCAGGCCCGGAUAAAAGUGGAGGGGGCGG [U12C A23G] | 0.486 |
| AACACUGCCAACGCCGGUCCCAAGCCCGGCUAAAAGUGGAGGGGGCGG [U12C A30C] | 0.761 |
| AACACUGCCAACGCCGGUCCCAAGCCCGGAUCAAAGUGGAGGGGGCGG [U12C A32C] | 0.982 |

| Variant | self-cleavage |
| --- | --- |
| AACACUGCCAACGCCGGUCCCAAGCCCGGAUGAAAGUGGAGGGGGCGG [U12C A32G] | 1.24 |
| AACACUGCCAACGCCGGUCCCAAGCCCGGAUUAAAGUGGAGGGGGCGG [U12C A32U] | 0.835 |
| AACACUGCCAACGCCGGUCCCAAGCCCGGAUACAAGUGGAGGGGGCGG [U12C A33C] | 0.876 |
| AACACUGCCAACGCCGGUCCCAAGCCCGGAUAGAAGUGGAGGGGGCGG [U12C A33G] | 1 |
| AACACUGCCAACGCCGGUCCCAAGCCCGGAUAUAAGUGGAGGGGGCGG [U12C A33U] | 1.01 |
| AACACUGCCAACGCCGGUCCCAAGCCCGGAUAAGAGUGGAGGGGGCGG [U12C A34G] | 0.821 |
| AACACUGCCAACGCCGGUCCCAAGCCCGGAUAAUAGUGGAGGGGGCGG [U12C A34U] | 0.886 |
| AACACUGCCAACGCCGGUCCCAAGCCCGGAUAAACGUGGAGGGGGCGG [U12C A35C] | 1.08 |
| AACACUGCCAACGACGGUCCCAAGCCCGGAUAAAAGUGGAGGGGGCGG [U12C C14A] | 0.818 |
| AACACUGCCAACGGCGGUCCCAAGCCCGGAUAAAAGUGGAGGGGGCGG [U12C C14G] | 0.0887 |
| AACACUGCCAACGCAGGUCCCAAGCCCGGAUAAAAGUGGAGGGGGCGG [U12C C15A] | 0.739 |
| AACACUGCCAACGCGGGUCCCAAGCCCGGAUAAAAGUGGAGGGGGCGG [U12C C15G] | 0.0964 |
| AACACUGCCAACGCCGGUUCCAAGCCCGGAUAAAAGUGGAGGGGGCGG [U12C C19U] | 0.951 |
| AACACUGCCAACGCCGGUCGCAAGCCCGGAUAAAAGUGGAGGGGGCGG [U12C C20G] | 0.103 |
| AACACUGCCAACGCCGGUCCGAAGCCCGGAUAAAAGUGGAGGGGGCGG [U12C C21G] | 0.0654 |
| AACACUGCCAACGCCGGUCCUAAGCCCGGAUAAAAGUGGAGGGGGCGG [U12C C21U] | 0.0795 |
| AACACUGCCAACGCCGGUCCCAAGGCCGGAUAAAAGUGGAGGGGGCGG [U12C C25G] | 0.439 |
| AACACUGCCAACGCCGGUCCCAAGCACGGAUAAAAGUGGAGGGGGCGG [U12C C26A] | 0.658 |
| AACACUGCCAACGCCGGUCCCAAGCUCGGAUAAAAGUGGAGGGGGCGG [U12C C26U] | 0.333 |
| AACACUGCCAACGCCGGUCCCAAGCCAGGAUAAAAGUGGAGGGGGCGG [U12C C27A] | 0.577 |
| AACACUGCCAACGCCGGUCCCAAGCCGGGAUAAAAGUGGAGGGGGCGG [U12C C27G] | 0.0656 |
| AACACUGCCAACGCCGGUCCCAAGCCCGGAUAAAAGUGGAGGGGGUGG [U12C C46U] | 0.957 |
| AACACUGCCAACACCGGUCCCAAGCCCGGAUAAAAGUGGAGGGGGCGG [U12C G13A] | 0.772 |
| AACACUGCCAACCCCGGUCCCAAGCCCGGAUAAAAGUGGAGGGGGCGG [U12C G13C] | 0.453 |
| AACACUGCCAACUCCGGUCCCAAGCCCGGAUAAAAGUGGAGGGGGCGG [U12C G13U] | 0.659 |
| AACACUGCCAACGCCAGUCCCAAGCCCGGAUAAAAGUGGAGGGGGCGG [U12C G16A] | 0.938 |
| AACACUGCCAACGCCUGUCCCAAGCCCGGAUAAAAGUGGAGGGGGCGG [U12C G16U] | 0.799 |

From the RNAGym collection of RNA variant scans (doi:10.7554/elife.80360)
